The record followed here is patent publication US20210087270A1.

For assay [1], the target named is human KIR3DL2 (CD158k), wild type, at the cell surface (human) (UniProt P43630). Kind of assay: cell-based or functional assay.
In assay [2] the target is recombinant human KIR3DL2 protein (human) (UniProt P43630). Nature of the assay: SPR (Biacore), bivalent binding, N = 1. (In SPR one partner is held on a chip, and binding of the other changes the refractive index at the surface.)
For assay [3] the target is unchanged. Nature of the assay: SPR (Biacore), bivalent binding, N = 2.
For assay [4] the target is unchanged. Nature of the assay: SPR (Biacore), bivalent binding, N = 3.
Assay [5] shares this target. Nature of the assay: SPR (Biacore), bivalent binding, mean of three.
Assay [6] has the same target. Kind of assay: SPR (Biacore), mean off-rate for bivalent binding converted to per hour.
For assay [7] the target is unchanged. Kind of assay: SPR (Biacore), average bivalent binding affinity to recombinant KIR3DL2.
Assay [8] addresses human KIR3DL2 (CD158k), wild type, at the cell surface (human) (UniProt P43630). Kind of assay: flow cytometry, concentration-response binding of PE-labelled IPH4102 on COU-L Sezary cell line. In general terms: A flow cytometer gives signals particle by particle.
Assay [9] shares this target. Kind of assay: flow cytometry, concentration-response binding of PE-labelled IPH4102 on HuT78 Sezary cell line.
Assay [10] has the same target. Nature of the assay: flow cytometry, concentration-response binding of PE-labelled IPH4102 on primary Sezary tumor cells.
Assay [11] has the same target. Kind of assay: PK/PD model parameter 'Binding affinity', set from the filing's flow cytometry titration of IPH4102 on KIR3DL2-positive cells (EC50 about 0.07 ug/mL); not a separate kinetic measurement.

Chain of human KIR3DL2 (CD158k), wild type, at the cell surface (human) (P43630 22-455 E158D): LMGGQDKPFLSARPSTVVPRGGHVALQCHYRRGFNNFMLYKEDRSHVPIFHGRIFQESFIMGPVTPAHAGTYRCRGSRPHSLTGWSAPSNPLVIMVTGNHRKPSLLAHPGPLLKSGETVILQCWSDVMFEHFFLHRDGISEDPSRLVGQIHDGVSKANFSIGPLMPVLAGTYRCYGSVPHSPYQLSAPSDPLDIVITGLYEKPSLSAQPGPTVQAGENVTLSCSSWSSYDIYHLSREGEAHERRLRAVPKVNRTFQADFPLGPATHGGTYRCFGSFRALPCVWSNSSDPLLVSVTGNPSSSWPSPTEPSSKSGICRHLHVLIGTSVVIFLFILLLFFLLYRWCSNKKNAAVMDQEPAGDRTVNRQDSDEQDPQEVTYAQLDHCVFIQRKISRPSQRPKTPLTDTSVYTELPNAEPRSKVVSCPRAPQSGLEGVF

B1: IPH4102 (humanized 2B12 mAb, full-length human IgG1 anti-KIR3DL2 antibody) (antibody, from a related filing, V domains shown)
VH: QIQLVQSGSELKKPGASVKVSCKASGYTFTTAGMQWVRQAPGQGLEWIGWINSHSGVPKYAEDFKGRFVFSLDTSVSTAYLQISSLKAEDTAVYFCARGGDEGVMDYWGQGTTVTVSS
VL: DIQMTQSPSFLSASVGDRVTITCKASQDVSTAVAWYQQKPGQPPKLLIYWTSTRHTGVPDRFSGSGSGTDYTLTISSLQAEDVAVYYCQQHYSTPWTFGGGTKVEIK
A word on the koff: it is a measure of how fast the partners let go of each other. Usually kon stands for the rate constant with which the complex forms. In general, EC50 refers to the midpoint of the concentration-response curve. Low readings indicate higher potency in that assay, high ones lower potency in that assay. B1 yielded an EC50 in 51Cr-release assay HuT 78 tumor lysis by PBMC from healthy volunteers in [1] of 0.045 µg/mL. The median EC10 in the 51Cr release assay (HuT78 tumor cell lysis by healthy donors' PBMC, NK cell lytic capacity) in [1] came out at 0.002 µg/mL. Also, the Kd is 162 pM in assay [2]; 131 pM in assay [3]; 144 pM in assay [4]; 146 pM in assay [5]; 0.0219 µg/mL in assay [7]; 0.07 µg/mL in assay [11]. Besides, the koff amounted to 0.000156 s⁻¹ in [2]; 0.000125 s⁻¹ in assay [3]; 0.000139 s⁻¹ in assay [4]; 0.00014 s⁻¹ in assay [5]; 0.00014 s⁻¹ in [6]. Besides, the kon amounted to 968000 M⁻¹ s⁻¹ in [2], 953000 M⁻¹ s⁻¹ in assay [3], 965000 M⁻¹ s⁻¹ in assay [4] and 962000 M⁻¹ s⁻¹ in assay [5]. Moreover, the EC50 in assay [8] amounted to 0.087 µg/mL; in assay [9] it was 0.06 µg/mL; in assay [10] it was 0.07 µg/mL.
